In the supplement of paper PMC10126150:
± gives the standard deviation of the averaged measurements.

Tested on: ATP
Test: switch fluorescence ratio, 500 uM ATP over buffer (Cy3 cluster intensity, sum of 5 cycles each) (fold (ratio)); higher = stronger signal-on switching upon ATP binding; sequences stand for … in TCGTCGGCAGCGTCAGATGTGTATAAGAGACAGTTTTTTTTTTTTTTTTTTTTTTTTT…TC
Settings: aptamer strand: ATP DNA aptamer (quencher-CACCTGGGGGAGTATTGCGGAGGAAGG + anchor), 100 nM annealed; ATP concentration: 500 uM
Summary of the method: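 The quencher-labelled ATP aptamer, at 100 nM, was annealed to Cy3-labelled switching-strand clusters on a modified Illumina MiSeq flow-cell. The clusters were imaged in selection buffer, then after 15 min with 500 uM ATP at 22 °C, and this buffer/ATP cycle ran five times with NaOH stripping and re-annealing between runs. Per-cluster fluorescence ratios, summed target-cycle over summed buffer-cycle Cy3 intensity, were averaged per switch-domain sequence. Clusters outside 100-1000 RFU were excluded.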
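Further: ATP exposure 15 min at 22 °C before imaging.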

| Sequence | switch fluorescence ratio |
| --- | --- |
| TTGTACTTAC | 1.24 ± 0.048 |
| TTGTAGATGC | 1.03 ± 0.071 |
| TTGTAGCCGT | 0.983 ± 0.029 |
| TTGTAGGAAC | 0.9978 ± 0.0037 |
| TTGTAGGGAG | 1 ± 0.027 |
| TTGTAGTATC | 1 ± 0.025 |
| TTGTAGTTGG | 0.986 ± 0.058 |
| TTGTAGTTTT | 1.01 ± 0.038 |
| TTGTATAAGG | 1 ± 0.015 |
| TTGTATCCTG | 0.9637 ± 0.0011 |
| TTGTATGGG | 0.984 ± 0.015 |
| TTGTATTAGG | 0.968 ± 0.05 |
| TTGTCAGTTT | 1.03 ± 0.079 |
| TTGTCCGGGG | 1.006 ± 0.0058 |
| TTGTCCGTGC | 1.14 ± 0.15 |
| TTGTCCTGCG | 0.965 ± 0.019 |
| TTGTCCTGTG | 1.02 ± 0.036 |
| TTGTCGTCGC | 0.989 ± 0.024 |
| TTGTCTCTTT | 0.9932 ± 0.0062 |
| TTGTGAAAGA | 1.01 ± 0.021 |
| TTGTGAATGT | 0.975 ± 0.016 |
| TTGTGAGGGG | 0.988 ± 0.022 |
| TTGTGAGTAG | 1 ± 0.028 |
| TTGTGAGTGT | 1.01 ± 0.034 |
| TTGTGATACT | 1.07 ± 0.044 |

| Sequence | switch fluorescence ratio |
| --- | --- |
| TTGTGCCCGG | 0.9727 ± 0.009 |
| TTGTGCCGGT | 0.988 ± 0.037 |
| TTGTGCGTAG | 0.991 ± 0.047 |
| TTGTGCTGCC | 1.05 ± 0.027 |
| TTGTGGAAAT | 1 ± 0.069 |
| TTGTGGCAGG | 1.01 ± 0.054 |
| TTGTGGCTGT | 1.01 ± 0.023 |
| TTGTGGGGCC | 1 ± 0.029 |
| TTGTGGGGGG | 0.989 ± 0.036 |
| TTGTGGGTTA | 0.96 ± 0.012 |
| TTGTGGTCTT | 0.9762 ± 0.0075 |
| TTGTGGTGGG | 1.03 ± 0.069 |
| TTGTGGTTTG | 0.992 ± 0.034 |
| TTGTGTATGG | 1.02 ± 0.052 |
| TTGTGTCGGG | 0.998 ± 0.02 |
| TTGTGTGATT | 1.02 ± 0.038 |
| TTGTGTGGGC | 1.04 ± 0.047 |
| TTGTGTGTAA | 0.995 ± 0.014 |
| TTGTGTTAGT | 0.958 ± 0.01 |
| TTGTGTTTAT | 0.965 ± 0.015 |
| TTGTGTTTTT | 0.995 ± 0.023 |
| TTGTTAACAG | 0.997 ± 0.018 |
| TTGTTAATAT | 1 ± 0.035 |
| TTGTTAATGT | 1.06 ± 0.17 |
| TTGTTAGAA | 1.0004 ± 0.001 |

| Sequence | switch fluorescence ratio |
| --- | --- |
| TTGTTAGAAA | 1.002 ± 0.0058 |
| TTGTTAGATC | 0.984 ± 0.036 |
| TTGTTAGGCC | 0.995 ± 0.021 |
| TTGTTAGTTT | 0.983 ± 0.032 |
| TTGTTATACG | 1.09 ± 0.079 |
| TTGTTATGTA | 0.982 ± 0.026 |
| TTGTTATGTT | 0.971 ± 0.03 |
| TTGTTATTGG | 0.978 ± 0.038 |
| TTGTTCAAAA | 1.03 ± 0.025 |
| TTGTTCCATA | 1 ± 0.033 |
| TTGTTGAAGG | 0.998 ± 0.038 |
| TTGTTGAAGT | 0.9966 ± 0.0072 |
| TTGTTGATTT | 1.02 ± 0.034 |
| TTGTTGGGAA | 0.998 ± 0.032 |
| TTGTTGGGGG | 0.994 ± 0.027 |
| TTGTTGGTAC | 1.15 ± 0.23 |
| TTGTTGGTCC | 1.16 ± 0.25 |
| TTGTTGGTGA | 0.971 ± 0.033 |
| TTGTTGGTGC | 1.09 ± 0.014 |
| TTGTTGGTTA | 0.9925 ± 0.0028 |
| TTGTTGGTTT | 1.02 ± 0.05 |
| TTGTTGTAGC | 1.02 ± 0.015 |
| TTGTTGTATG | 1.02 ± 0.014 |
| TTGTTGTCGG | 0.956 ± 0.013 |
| TTGTTGTTAC | 0.9998 ± 0.0074 |

| Sequence | switch fluorescence ratio |
| --- | --- |
| TTGTTTAACT | 1.02 ± 0.026 |
| TTGTTTAGGG | 0.999 ± 0.049 |
| TTGTTTCCCG | 1.013 ± 0.0086 |
| TTGTTTGGCC | 1.05 ± 0.079 |
| TTGTTTGGCT | 1.01 ± 0.015 |
| TTGTTTGGTG | 0.932 ± 0.014 |
| TTGTTTTAAT | 0.999 ± 0.02 |
| TTGTTTTACA | 0.9843 ± 0.0096 |
| TTGTTTTGAT | 0.984 ± 0.035 |
| TTGTTTTGCA | 0.971 ± 0.018 |
| TTGTTTTTTC | 0.986 ± 0.026 |
| TTTAAAAAGC | 0.996 ± 0.032 |
| TTTAAAAAGT | 1 ± 0.023 |
| TTTAAAAATA | 0.9966 ± 0.0049 |
| TTTAAAACGC | 1.01 ± 0.099 |
| TTTAAAATTC | 1.28 ± 0.49 |
| TTTAAACGTA | 0.983 ± 0.033 |
| TTTAAAGTGT | 0.997 ± 0.029 |
| TTTAAATCTT | 1.06 ± 0.022 |
| TTTAAATGCG | 0.985 ± 0.041 |
| TTTAAATGGT | 1 ± 0.027 |
| TTTAACCGTC | 1.06 ± 0.052 |
| TTTAACGAAT | 1.09 ± 0.099 |
| TTTAACGTTT | 0.979 ± 0.0061 |
| TTTAACTCTG | 1 ± 0.011 |
